The results in this text go back to patent US20050282743A1, “Molecular interactions in cells” (Arbor Vita Corporation, priority 2001, published 2005).

In assay [1] the target is T1, GST-KIAA0300 PDZ domain 1 (UniProt O15018).
T1 sequence (looked up): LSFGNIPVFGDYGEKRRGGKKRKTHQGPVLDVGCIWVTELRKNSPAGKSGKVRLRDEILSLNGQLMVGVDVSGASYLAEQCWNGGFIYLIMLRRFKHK
Kind of assay: G' assay. Further: key of the grades not given here.

Assay [2] addresses GST-DLG-1 PDZ domains 1 to 3 (Example 6) (Homo sapiens) (UniProt Q12959). The experiment in a line: G assay competition vs 20 uM biotin-CLASP-2 20-mer; competitor 100 uM.
For assay [3] the target is unchanged. Kind of assay: G assay competition vs 10 uM biotin-CD95 20-mer; competitor 100 uM.
Assay [4] has the same target. The experiment in a line: G assay competition vs 10 uM biotin-KV1.3 20-mer; competitor 100 uM.
Assay [5] has the same target. Kind of assay: G assay competition vs 20 uM biotin-CD46 20-mer; competitor 100 uM.
Assay [6] has as its target GST-PSD95 PDZ domains 1, 2, 3 (Homo sapiens) (UniProt P78352). The experiment in a line: G assay competition vs 10 uM biotin-KV1.3 20-mer; competitor 1000 uM.
For assay [7] the target is unchanged. Kind of assay: G assay competition vs 20 uM biotin-CD46 20-mer; competitor 1000 uM.
The target of assay [8] is GST-DLG-1 PDZ domains 1 to 3 (Example 6) (Homo sapiens) (UniProt Q12959). The description is as above.
Assay [9] has as its target GST-PSD95 PDZ domains 1, 2, 3 (Homo sapiens) (UniProt P78352). Kind of assay: G assay competition vs 20 uM biotin-CD46 20-mer; competitor 500 uM.
Assay [10] has as its target GST-DLG-1 PDZ domains 1 to 3 (Example 6) (Homo sapiens) (UniProt Q12959). The assay is described as above.
For assay [11], the target named is GST-PSD95 PDZ domains 1, 2, 3 (Homo sapiens) (UniProt P78352). The experiment in a line: G assay competition vs 10 uM biotin-CD95 20-mer; competitor 1000 uM.
Chain of GST-PSD95 PDZ domains 1, 2, 3 (Homo sapiens) (P78352 62-395): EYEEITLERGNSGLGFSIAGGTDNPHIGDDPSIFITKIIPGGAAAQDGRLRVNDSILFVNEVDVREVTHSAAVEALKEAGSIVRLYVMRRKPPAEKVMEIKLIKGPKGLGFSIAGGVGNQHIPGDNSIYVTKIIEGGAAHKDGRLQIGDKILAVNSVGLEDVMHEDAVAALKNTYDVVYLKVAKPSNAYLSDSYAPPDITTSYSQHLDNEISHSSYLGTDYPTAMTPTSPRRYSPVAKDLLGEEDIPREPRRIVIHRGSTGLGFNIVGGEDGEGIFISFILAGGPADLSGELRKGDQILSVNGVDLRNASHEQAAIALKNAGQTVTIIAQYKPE
In assay [12] the target is GST-DLG-1 PDZ domains 1 to 3 (Example 6) (Homo sapiens) (UniProt Q12959). The assay is described as above.
In assay [13] the target is GST-PSD95 PDZ domains 1, 2, 3 (Homo sapiens) (UniProt P78352). Kind of assay: G assay competition vs 20 uM biotin-CLASP-2 20-mer; competitor 1000 uM.
Assay [14] deals with GST-DLG-1 PDZ domains 1 to 3 (Example 6) (Homo sapiens) (UniProt Q12959). The assay is described as above.
Assay [15] addresses GST-PSD95 PDZ domains 1, 2, 3 (Homo sapiens) (UniProt P78352). The experiment in a line: G assay competition vs 10 uM biotin-CD95 20-mer; competitor 500 uM.
In assay [16] the target is GST-DLG-1 PDZ domains 1 to 3 (Example 6) (Homo sapiens) (UniProt Q12959). The assay is described as above.
For assay [17], the target named is GST-PSD95 PDZ domains 1, 2, 3 (Homo sapiens) (UniProt P78352). The experiment in a line: G assay competition vs 10 uM biotin-KV1.3 20-mer; competitor 500 uM.
Assay [18] shares this target. The experiment in a line: G assay competition vs 20 uM biotin-CLASP-2 20-mer; competitor 500 uM.
Assay [19] addresses GST-DLG-1 PDZ domains 1 to 3 (Example 6) (Homo sapiens) (UniProt Q12959). The assay is described as above.
In assay [20] the target is GST-TIP1 PDZ domain 1 (Table 9 insert) (Homo sapiens (Human)) (UniProt O14907). Kind of assay: G' assay. Further: key of the grades not given here.
Chain of GST-TIP1 PDZ domain 1 (Table 9 insert) (Homo sapiens (Human)) (O14907 14-116): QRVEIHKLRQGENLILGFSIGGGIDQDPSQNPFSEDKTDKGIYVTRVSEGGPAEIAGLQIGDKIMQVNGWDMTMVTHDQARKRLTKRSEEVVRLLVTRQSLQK
Assay [21] has as its target GST-BAI-1 Associated Protein PDZ domain 2 (Mus musculus (Mouse)) (UniProt Q6RHR9). The experiment in a line: G' assay. Further: key of the grades not given here.
Assay [22] deals with GST-p55T PDZ domain 1 (Homo sapiens (Human)) (UniProt Q9NZW5). The experiment in a line: G' assay. Further: key of the grades not given here.
Assay [23] has as its target T2, GST-KIAA0300 PDZ domain 2 (UniProt O15018).
T2 sequence (looked up): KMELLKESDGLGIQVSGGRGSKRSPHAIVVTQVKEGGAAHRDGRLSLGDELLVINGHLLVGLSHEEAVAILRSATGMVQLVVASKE
Kind of assay: G' assay. Further: key of the grades not given here.

Assay [24] addresses GST-DLG-1 PDZ domains 1 to 3 (Example 6) (Homo sapiens) (UniProt Q12959). Kind of assay: G assay competition vs 10 uM biotin-CD95 20-mer; competitor 50 uM.
Assay [25] shares this target. The experiment in a line: G assay competition vs 20 uM biotin-CLASP-2 20-mer; competitor 50 uM.
The target is the same in assay [26]. The experiment in a line: G assay competition vs 20 uM biotin-CD46 20-mer; competitor 50 uM.
Assay [27] shares this target. Kind of assay: G assay competition vs 10 uM biotin-KV1.3 20-mer; competitor 50 uM.

Chain of GST-BAI-1 Associated Protein PDZ domain 2 (Mus musculus (Mouse)) (Q6RHR9 455-558): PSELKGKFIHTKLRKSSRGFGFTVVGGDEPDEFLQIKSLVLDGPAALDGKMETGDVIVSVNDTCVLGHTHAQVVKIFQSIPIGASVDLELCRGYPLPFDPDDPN

As for AdenoE4 typ9 (peptide), in assay [1], the Classification is 1 A450 class.
Consider CD46 8-mer (peptide), for which the % binding of labelled 20-mer in [2] came to 90%; in assay [3], 68%; in assay [4], 63%; in [5], 90%.
Consider CLASP-2 3-mer (peptide), for which the % binding of labelled 20-mer in assay [6] turned out to be 50%; in [7] it was 59%; in [8], 45%; in assay [9], 75%; in assay [10] it was 72%; in assay [11], 55%. For the same substance, the % binding of labelled 20-mer amounted to 46% in [12]; 63% in assay [13]; 59% in [14]; 55% in [15]; 51% in assay [16]; 81% in assay [17]. For the same substance, the % binding of labelled 20-mer came out at 82% in assay [18] and 61% in assay [19].
For the substance “CSPG4 (chondroitin sulfae proteoglycan 4, melanoma-associated) (peptide)”, in assay [1], the Classification came to 2 A450 class.
As for HPV E6 #18 (peptide), the results for the Classification in [20] and in assay [21] were 4 A450 class and 5 A450 class, respectively.
Take MINT-1 (peptide): the Classification in assay [1] stood at 4 A450 class.
With MINT-2 (peptide), the Classification came to 3 A450 class in assay [1] and 1 A450 class in [22].
On to ephrin B2 (peptide), for which the Classification in assay [1] was determined as 2 A450 class.
In the case of presenilin-1 (peptide), in [22], the Classification was determined as 1 A450 class.
On to presenilin-2 (peptide), for which the Classification in [1] and in assay [23] was 1 A450 class each time.
As for “unlabeled 8 amino acid peptide corresponding to the C-terminus of CD95”, the % binding of labelled 20-mer in [24] was found to be 70%; in assay [25] it was 73%; in assay [26] it was 110%; in assay [27] it was 84%.
